According to US6709814B1, “Peptides causing formation of compact structures” (Rigel Pharmaceuticals, Inc., priority 1998, dated 2004):
Bridge positions count the residues as written; N and C are the ends. Square brackets hold non-standard residues; d marks the D form. Ends that are not written are not given here. Peptide text beside a SMILES is read from it. pGlu = O=C1CC[C@@H](C(=O)O)N1

Columns and labels:
[1] = target: T1, porcine pancreatic elastase (Sus scrofa, UniProt P00772); test: Inhibition of porcine pancreatic elastase (succinyl-ala-ala-ala-p-nitroanilide cleavage); type: biochemical; details: pH 7.88, 25 C
T1 construct: purchased Sigma Chemical Co., St. Louis, Mo
T1 sequence (P00772 27-266): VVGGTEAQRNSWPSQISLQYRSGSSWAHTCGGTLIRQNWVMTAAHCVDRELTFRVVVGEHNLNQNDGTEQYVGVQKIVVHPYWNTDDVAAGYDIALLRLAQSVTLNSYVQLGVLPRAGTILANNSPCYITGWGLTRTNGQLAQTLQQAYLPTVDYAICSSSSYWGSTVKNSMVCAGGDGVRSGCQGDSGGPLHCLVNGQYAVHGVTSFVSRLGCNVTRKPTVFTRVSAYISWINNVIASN
Method: Inhibition by different peptide constructs was followed by preincubation of 10 μM peptide with elastase for 1-1.5 min. followed by addition of the substrate. Percent inhibition was calculated as [1−{assay slope(peptide+elastase)/assay slope(elastase alone)}]×100%.

[2] = target: T1, porcine pancreatic elastase; details: Leatherbarrow and Salacinski; read-out: reported apparent inhibition constant (Ki) for elastase; cited from earlier work
[3] = Observation of peptide dimers by electrospray MS / LC-MS under harsh conditions; type: binding; details: electrospray ion trap, infusion at pH 6.4 or C18 elution at ~pH 2.5 in acetonitrile
Text: The peptide also forms dimers (also detected by mass spectrometry) when eluted off a C18 reversed phase column at pH ˜2.5 in ca. 25% acetonitrile (FIG. 3B).
LC/MS examination of the crude synthesis products from an all-single coupled fmoc synthesis of EFLIVKS-amide, for shorter sequences which can dimerize after electrospray ionization is shown in FIG. 4. HPLC elution was with a gradient of 99.9% water-0.1% TFA to 99.9% acetonitrile-0.1% TFA. Dimers of the following truncated sequences were detected by mass spectrometry with the percent acetonitrile in parentheses, all at ˜pH 2.5: peak 1, […] (23.5%), monomer m/z=705.3, dimer m/z=1409.3; peak 4: EFLIVKS-amide (25%), monomer m/z=834.4, dimer m/z=1667.3; and peak 5, EFLIVK-amide (32%), monomer m/z=747.4, dimer m/z=1493.1.

[4] = Solubility of peptide constructs; type: physicochemical
[5] = cited from earlier work; for concentration at which dimers form / do not dissociate: aqueous solution, physiological conditions; for dimer formation of HA fragments: compared with HA
[6] = target: the molecule itself; test: self-dimerization, electrospray mass spectrometry, relative dimer ion current against peptide concentration, pH 5.0
[7] = target: the molecule itself; test: self-dimerization, electrospray mass spectrometry, alanine scan
[8] = target: porcine pancreatic elastase (porcine, UniProt P00772 27-266); test: cell-based or functional assay
porcine pancreatic elastase (porcine, UniProt P00772 27-266), sequence (P00772 27-266 limits assumed): as the sequence (P00772 27-266) above

[9] = target: the molecule itself; test: LC/MS, C18 reversed phase elution at ~pH 2.5, electrospray

O=S(=O)(F)Cc1ccccc1 [PMSF]
inhibition of porcine pancreatic elastase ([1]; 2 mM PMSF): 100%

CC[C@H](C)[C@@H]1NC(=O)[C@H](CCCNC(=N)N)NC(=O)[C@H](Cc2ccc(O)cc2)NC(=O)[C@H](CCC(=O)O)NC(=O)[C@H](CCSC)NC(=O)[C@H]([C@@H](C)O)NC(=O)[C@H](C(C)C)NC(=O)[C@H]([C@@H](C)CC)NC(=O)[C@H]([C@@H](C)O)NC(=O)CNC(=O)[C@@H](N)CSSC[C@@H](C(=O)O)NC(=O)[C@H](Cc2ccccc2)NC(=O)[C@H](CO)NC(=O)[C@H](CCCNC(=N)N)NC(=O)[C@H]([C@@H](C)O)NC(=O)[C@H](CCCNC(=N)N)NC(=O)[C@H](CC(=O)O)NC1=O [cyclic[CGTIVTMEYRIDRTRSFC]] (H-CGTIVTMEYRIDRTRSFC-OH; disulfide 1-18)
Ki [2]: 0.00039 µM | inhibition of porcine pancreatic elastase ([1]; 500 nM peptide, 100 μM succ-ala-ala-ala-p-nitroanilide): 6.2%

EFLIVK-amide (EFLIVK-NH2)
dimer detected by mass spectrometry [3]: Dimers

EFLIVKS
dimer detected by mass spectrometry ([3]; listed as EFLIVKS-amide): self-associate to form dimers

EFLIVKSSTKSIPPQSEFLIVKS [EFLIVKS-STKSIPPQS-EFLIVKS]
solubility [4]: quite soluble at low pH

LIVKS-amide
dimer detected by mass spectrometry [3]: Dimers

SKVILFE
concentration at which dimers form / do not dissociate [5]: ~10^−13 M

VSIKFEL [peptide designed to form a short beta sheet]
dimer detected by mass spectrometry [3]: dimeric form of the peptide

[pGlu]PPGGSK
dimer formation of HA fragments [5]: did not lead to dimer formation

[pGlu]PPGGSKVILF [HA]
concentration at which dimers form / do not dissociate [5]: ≤ 10^−13 M

pSKVILF
dimer formation of HA fragments [5]: dimerized more efficiently

pVILF
dimer formation of HA fragments [5]: did not lead to dimer formation

B1: AFLIVKS (peptide)
peptide: AFLIVKS
notes: Alanine scan analog of EFLIVKS (E1A)
Kd [6]: 12 µM

B2: EFAIVKS (peptide)
peptide: EFAIVKS
notes: Alanine scan analog of EFLIVKS (L3A)
Kd [6]: 76 µM | fold weakening of self-binding against EFLIVKS [7]: 9.7 fold

B3: EFLIAKS (peptide)
peptide: EFLIAKS
notes: Alanine scan analog of EFLIVKS (V5A)
Kd [6]: 82 µM | fold weakening of self-binding against EFLIVKS [7]: 10 fold

B4: EFLAVKS (peptide)
peptide: EFLAVKS
notes: Alanine scan analog of EFLIVKS (I4A)
Kd [6]: 42 µM | fold weakening of self-binding against EFLIVKS [7]: 5.4 fold

B5: KFLIVKS (peptide)
peptide: KFLIVKS
notes: Analog of EFLIVKS with the N-terminal glu replaced by lys
Kd [6]: 6.8 µM

B6: SKVILFE (peptide)
peptide: SKVILFE-NH2
notes: also called SKVILFE-amide; test peptide SKVILFE
Kd [6]: 12 µM

B7: EALIVKS (peptide)
peptide: EALIVKS
notes: Alanine scan analog of EFLIVKS (F2A)
Kd [6]: 42 µM | fold weakening of self-binding against EFLIVKS [7]: 5.4 fold

B8: EFLIVAS (peptide)
peptide: EFLIVAS
notes: Alanine scan analog of EFLIVKS (K6A)
Kd [6]: > 50 µM | fold weakening of self-binding against EFLIVKS [7]: 6 fold

B9: cyclic[CGTIVTMEYRIDRTRSFC] (peptide)
peptide: CGTIVTMEYRIDRTRSFC
modifications: disulfide 1-18
inhibition (% inhibition of elastase cleavage of succ-ala-ala-ala-p-nitroanilide) [8]: 6.2%

B10: EFLIVKS (peptide)
peptide: EFLIVKS-NH2
notes: also called EFLIVKS-amide; dimerizer
Kd [6]: 7.8 µM

B11: VSIKFEL (peptide)
peptide: VSIKFEL
notes: Peptide designed to form a short beta sheet
Kd [6]: 13 µM

B12: EFLIVK-amide (peptide)
peptide: EFLIVK-NH2
notes: Truncated by-product of the EFLIVKS-amide synthesis; also called peak 5
binding result [9]: binds

B13: EFLIVKA (peptide)
peptide: EFLIVKA
notes: Alanine scan analog of EFLIVKS (S7A)
Kd [6]: 9.9 µM
